Measurements from patent publication US20190256600A1 (ANAPTYSBIO, published 2019).

Key:
[1] = molecular target: T1, dimeric human PD-1 fusion protein (fused with mouse IgG2a Fc) (human; mouse, UniProt Q15116 25-167, limits assumed); test: SPR (Biacore T200); antibody captured on anti-human IgG Fc chip, dimeric PD-1-mouse IgG2a Fc as analyte, 1:1 model
T1 construct: Soluble dimeric analyte in SPR; also called soluble PD-1 fusion; not shown: mouse IgG2a Fc
Method: (§1) SPR analyses were carried out using a Biacore T200 system and kinetic constants were determined using Biacore T200 Evaluation software. […] GE anti-human IgG (Fc-specific) was immobilized on a Biacore CM5 chip. An exemplary anti-PD-1 antibody (having heavy and light chains as set forth in SEQ ID NOs: 1 & 2, respectively) was then captured onto this surface […]. Next, dimeric human or cynomolgus monkey PD-1 fusion proteins (fused with mouse IgG2a Fc) in a two-fold serial dilution series were flowed over the captured exemplary antibody and dissociation was monitored. Capture and analyte binding were performed in HBS-EP+ buffer. Chips were regenerated between each run using 3 M MgCl₂. The resulting sensorgrams were fitted globally using a 1:1 binding model to calculate on- and off-rates (kassoc and kdissoc, respectively) and dissociation constants as a measure of overall affinity (KD).

[2] = molecular target: T2, dimeric cynomolgus monkey PD-1 fusion protein (fused with mouse IgG2a Fc) (cynomolgus monkey; mouse, UniProt B0LAJ3 25-170); test: as above
T2 construct: Soluble dimeric analyte in SPR; also called cynomolgus PD-1; soluble PD-1 fusion
Method: as §1

[3] = molecular target: T3, full length native human PD-1 (on stably transfected CHO-K1 cells; native on human PBMCs) (human, UniProt Q15116 25-288); test: flow cytometry on CHO-K1 cells stably expressing full length human PD-1; PE anti-human IgG4 detection
T3 construct: whole, on cells; The same entry is used for the CHO-K1 transfectants and for PD-1 natively expressed on human PBMCs; also called cell-surface human PD-1; human PD-1 CHO-K1 cells
Method: (§2) Flow cytometry studies were performed with CHO-K1 cell line clones in which either full length native human or cynomolgus monkey PD-1 was stably transfected. An exemplary anti-PD-1 antibody (having heavy and light chains as set forth in SEQ ID NOs: 1 & 2, respectively) was diluted in 3-fold dilutions. Dilutions of exemplary antibody were added to human or cynomolgus monkey PD-1 expressing CHO-K1 cells (1E5 cells) and incubated on ice. Cells were washed twice and incubated on ice with PE-conjugated mouse anti-human IgG4 to detect antibody binding. Cells were washed and resuspended in the presence of propidium iodide to exclude dead cells and fixed and analyzed for fluorescence on a BD FACSArray instrument (BD Biosciences). Data were analyzed for median fluorescence intensity, graphed, and curves fitted for EC₅₀ value calculation in GraphPad Prism (GraphPad Software, Inc.) using a non-linear (sigmoidal) regression analysis.

[4] = molecular target: T3, full length native human PD-1 (on …); test: flow cytometry competition on human PD-1 CHO-K1 cells; competitor PD-L2-mFc-DyL650
Method: (§3) In these studies, human PD-L1 and PD-L2 mouse IgG1 Fc fusion proteins were expressed, purified, and labeled with DyL650. The dose-response of binding of both PD-L1 and PD-L2 to PD-1 CHO-K1 cells was determined. To quantify blocking of ligand binding to PD-1 CHO-K1 cells, exemplary anti-PD-1 antibody or IgG4 control antibody in a 3-fold dilution series was pre-mixed with PD-L1-mFc-DyL650 or PD-L2-mFc-DyL650. The mixture was added to human PD-1 CHO-K1 cells (3E5 cells) and incubated at 4° C. Cells were washed once and re-suspended in the presence of propidium iodide and DyL650-PD-L1 or DyL650-PD-L2. Binding was analyzed on a BD FACSArray (BD Bioscience), excluding dead cells.

[5] = molecular target: T4, full length native cynomolgus monkey PD-1 (on stably transfected CHO-K1 cells); native on cynomolgus monkey … (cynomolgus monkey, UniProt B0LAJ3 25-288); test: flow cytometry on CHO-K1 cells stably expressing full length cynomolgus monkey PD-1; PE anti-human IgG4 detection
T4 construct: The same entry is used for the CHO-K1 transfectants and for PD-1 natively expressed on cynomolgus monkey PBMCs; also called cell-surface cynomolgus monkey PD-1
Method: as §2

[6] = molecular target: T3, full length native human PD-1 (on …); test: flow cytometry competition on human PD-1 CHO-K1 cells; competitor PD-L1-mFc-DyL650
Method: as §3

[7] = molecular target: T3, full length native human PD-1 (on …); test: receptor occupancy by flow cytometry on human PBMCs (CD3+/IgG4+ cells, PE-labeled anti-IgG4), pre-incubation with a dilution series of the antibody [panel Human]
Text: (§4) For these studies, PBMCs from healthy human donors or cynomolgus monkeys were used. Human PBMCs were isolated from buffy coats obtained from the Indiana Blood Center and cynomolgus monkey PBMCs were isolated from peripheral blood collected aseptically into sodium heparin obtained from Worldwide Primates, Inc. In both cases, separation was by Ficoll using Ficoll-Paque 1.077 and cryopreserved for later use.
(§5) On the day of the experiments, the cryopreserved cells were thawed and the cell concentration was adjusted to 2E6 cells/ml prior to resting overnight at 37° C. in a humidified CO₂ incubator. Cells were then pelleted and re-suspended in 1 ml of media and recounted. The cell concentration was adjusted to 4E5 cells/150 μl of media. Human AB Serum (40 μl/ml) was added to block Fc receptors. After centrifugation, the cells were incubated with exemplary anti-PD-1 antibody at 4° C. PBMCs were then washed three times before being split into two conditions. One set of cells was incubated with exemplary anti-PD-1 antibody and the other set with IgG4 for 30 minutes at 4° C. The PBMCs were then washed four times prior to being stained with FITC-labeled anti-CD3 and PE-labeled anti-IgG4 antibodies. […] The number of CD3+/IgG4+ cells was determined for each parameter and the percentage of occupancy for the exemplary anti-PD-1 antibody was determined as follows: […]

[8] = molecular target: T2, dimeric cynomolgus monkey PD-1 fusion …; test: SPR (Biacore T200); cynomolgus monkey against human PD-1 fusion
Method: as §1

[9] = molecular target: T4, full length native cynomolgus monkey …; test: receptor occupancy by flow cytometry on cynomolgus monkey PBMCs (CD3+/IgG4+ cells, PE-labeled anti-IgG4), pre-incubation with a dilution series of the antibody [panel Cynomolgus monkey]
Text: as §4, §5

T3 sequence (Q15116 25-288): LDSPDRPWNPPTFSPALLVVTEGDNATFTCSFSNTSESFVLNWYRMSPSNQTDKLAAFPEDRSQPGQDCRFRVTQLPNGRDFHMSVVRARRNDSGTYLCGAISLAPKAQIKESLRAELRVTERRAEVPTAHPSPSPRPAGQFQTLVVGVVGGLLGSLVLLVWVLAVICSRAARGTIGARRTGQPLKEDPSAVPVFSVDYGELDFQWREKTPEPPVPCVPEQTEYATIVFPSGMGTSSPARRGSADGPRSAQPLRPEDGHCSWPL
T1 sequence (Q15116 25-167 limits assumed): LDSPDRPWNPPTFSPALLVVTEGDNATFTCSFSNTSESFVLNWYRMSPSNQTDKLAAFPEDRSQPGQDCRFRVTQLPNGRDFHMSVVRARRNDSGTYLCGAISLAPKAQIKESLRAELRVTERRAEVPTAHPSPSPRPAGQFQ
T2 sequence (B0LAJ3 entry or part of it limits assumed): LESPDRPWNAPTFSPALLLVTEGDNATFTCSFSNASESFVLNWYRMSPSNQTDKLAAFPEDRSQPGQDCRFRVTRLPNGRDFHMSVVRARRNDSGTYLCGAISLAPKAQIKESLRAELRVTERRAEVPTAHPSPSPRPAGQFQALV
T4 sequence (B0LAJ3 entry or part of it limits assumed): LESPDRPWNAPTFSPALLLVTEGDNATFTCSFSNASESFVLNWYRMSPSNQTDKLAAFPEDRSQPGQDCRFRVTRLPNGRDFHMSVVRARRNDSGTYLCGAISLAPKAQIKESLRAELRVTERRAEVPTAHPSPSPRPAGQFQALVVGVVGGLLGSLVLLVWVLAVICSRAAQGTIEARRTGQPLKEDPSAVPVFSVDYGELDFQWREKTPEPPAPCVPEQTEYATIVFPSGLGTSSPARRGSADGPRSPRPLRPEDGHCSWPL

Kd [1]: 0.3 nM
koff [1]: 0.00017 s⁻¹
kon [1]: 570000 M⁻¹ s⁻¹
Kd [2]: 0.53 nM
koff [2]: 0.00023 s⁻¹
kon [2]: 430000 M⁻¹ s⁻¹
EC50 [3]: 2 nM
IC50 [4]: 1.5 nM
EC50 [5]: 3.4 nM
IC50 [6]: 1.8 nM
EC50 (read off the curve) [7]: ~0.2 µg/mL
fold difference in KD against human PD-1 [8]: < 2 fold
EC50 (read off the curve) [9]: ~0.1 µg/mL
B1: exemplary anti-PD-1 antibody (having heavy and light chains as set forth in SEQ ID NOs: 1 & 2, respectively) (antibody, human IgG4 S228P, kappa, V domains shown)
VH: EVQLLESGGGLVQPGGSLRLSCAASGFTFSSYDMSWVRQAPGKGLEWVSTISGGGSYTYYQDSVKGRFTISRDNSKNTLYLQMNSLRAEDTAVYYCASPYYAMDYWGQGTTVTVSS
VL: DIQLTQSPSFLSAYVGDRVTITCKASQDVGTAVAWYQQKPGKAPKLLIYWASTLHTGVPSRFSGSGSGTEFTLTISSLQPEDFATYYCQHYSSYPWTFGQGTKLEIKR
modifications: occupied N-glycosylation site at asparagine residue 293 of SEQ ID NO:1
notes: Humanized IgG4 (human IGHG4*01) with kappa light chain (IGKC*01); also called exemplary humanized monoclonal anti-PD-1 antibody; anti-PD-1 mAb
